Assay results: article PMC5682033, “An Oleuropein β-Glucosidase from Olive Fruit Is Involved in Determining the Phenolic Composition of Virgin Olive Oil” (Frontiers in Plant Science, 2017)

Substrate: C/C=C1/[C@H](O[C@@H]2O[C@H](CO)[C@@H](O)[C@H](O)[C@H]2O)OC=C(C(=O)OC)[C@H]1CC(=O)OCCc1ccc(O)c(O)c1
Assay: HPLC determination of hydrolysed oleuropein
Assay type: biochemical, Olea europaea
Settings: free purified recombinant enzyme; standard assay

B1: OepGLU (recombinant olive β-glucosidase) (Olea europaea) (protein)
chain: MDIQSNVLTITSGSSPTDTSSNGQAAKSTKERIKRSDFPSDFVFGAATASYQVEGAWNEGGKGMSNWDYFTQSQPGGISDFSNGTIAIDHFNMFKDDVVVMKKLGLKAYRFSLSWPRILPGGRLCHGVSKEGVQFYNDLIDALLAADIEPYITIFHWDIPQCLQLEYGGFLHERVVQDFIEYSEICFWEFGDRVKYWITLNEPWSFTVQGYVAGAFPPNRGVTPKDTEETKKHARLHRGGGKLLTAFKYGNPGTEPYKVAHNLILCHAHAVDIYRTKYQESQGGKIGITNCISWNEPLTDSQEDKDAATRGNDFMLGWFVEPVVTGEYPESMIKNVGDRLPKFSEKEEKLVKGSYDFLGINYYTSTYTSDDPTKPTTDSYLTDSRTKTSHERNKVPIGAQAGSDWLYIVPWGIYRVMVDMKKRYNDPVIYITENGVDEVNDKSKTSTEALKDDIRIHYHQEHLYYLKLAMDQGVNLKGYFIWSLFDNFEWAAGFSVRFGVMYVDYANGRYTRLPKRSAVWWRNFLTKPTAVPLKNEPEKSEDRRKRLRGST
Km: 26.8 mM
